Measurements from patent US20120114652A1 (AbbVie / Abbott, published 2012).
Positions count from the first letter of the chain named.

T1: rat PAI-1 (rat, UniProt P20961 24-402)
T1 sequence: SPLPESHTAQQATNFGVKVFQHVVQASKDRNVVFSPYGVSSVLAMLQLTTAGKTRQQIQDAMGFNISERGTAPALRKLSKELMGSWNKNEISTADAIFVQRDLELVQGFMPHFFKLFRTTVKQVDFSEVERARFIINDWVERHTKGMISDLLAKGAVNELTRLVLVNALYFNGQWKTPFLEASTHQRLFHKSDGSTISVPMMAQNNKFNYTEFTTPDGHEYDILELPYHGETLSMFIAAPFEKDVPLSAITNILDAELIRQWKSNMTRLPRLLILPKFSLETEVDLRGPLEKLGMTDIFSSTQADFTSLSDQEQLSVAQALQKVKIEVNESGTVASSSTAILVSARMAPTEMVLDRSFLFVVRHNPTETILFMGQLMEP

T2: mouse PAI-1 (mouse, UniProt P22777 24-401)
T2 sequence: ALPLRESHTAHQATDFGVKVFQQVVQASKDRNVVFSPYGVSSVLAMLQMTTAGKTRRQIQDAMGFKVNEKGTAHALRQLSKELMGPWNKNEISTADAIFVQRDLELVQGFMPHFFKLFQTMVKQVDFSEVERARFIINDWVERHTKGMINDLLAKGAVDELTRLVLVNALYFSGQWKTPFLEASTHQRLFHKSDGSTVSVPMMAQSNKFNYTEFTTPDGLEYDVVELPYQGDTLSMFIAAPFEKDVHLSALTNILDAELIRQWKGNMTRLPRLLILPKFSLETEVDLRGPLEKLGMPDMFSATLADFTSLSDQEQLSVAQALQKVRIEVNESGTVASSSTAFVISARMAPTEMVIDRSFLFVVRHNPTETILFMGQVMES

B1: Antibody 14, scFv (scFv, V domains shown)
VH: QVQLQQSGAEVKKPGSSVKVSCKASGGTFSSYAISWVRQAPGQGLEWMGGIIPTFGTANYAQKFQGRVTITADESTSTAYMELSGLRSEDTAVYYCAREKRQWLEGHFDYWGRGTLVTVSS
VL: DIQMTQSPSFLSASIGDRVTITCRASEGIYHNLAWYQQKPGKAPKLLIYRASSLASGAPSRFSGSGSGTDFTFTISSLQPDDFATYYCQQYSNYPLTFGGGTKLEIK
B2: Antibody 03, IgG4, not germlined (antibody, V domains shown)
VH: B1 VH with L116P
VL: B1 VL with H31R, N32S, R50K, F73L, S77G
B3: Antibody 01, scFv (scFv, V domains shown)
VH: B1 VH with Q5V, T54I, G85S
VL: B1 VL with F10T, I15V, H31R, N32S, R50K, A58V, D70E, F73L, L104V
B4: Antibody 11, scFv (scFv, V domains shown)
VH: B1 VH with V37M, T54I, L116P
VL: B1 VL with T5I, I15T, R24Q, N32E, F73L
B5: Antibody 23, scFv (scFv, V domains shown)
VH: B1 VH with G66S, L116P
VL: B1 VL with N32S, F73L
B6: Antibody 17, scFv (scFv, V domains shown)
VH: B1 VH with L116P
VL: B1 VL with N32E, F73L
B7: Antibody 24, scFv (scFv, V domains shown)
VH: B1 VH with G56V, T69S, L116P
VL: B1 VL with N32A, F73L
B8: Antibody 04, scFv (scFv, V domains shown)
VH: B1 VH with Q3R, Q65R, D73N, H107R
VL: B1 VL with V19I, N32S, Y49H, S52T, A58T, S63G, T72A, F73L
B9: Antibody 07, scFv (scFv, V domains shown)
VH: B1 VH with M48V, L116P
VL: B1 VL with T5A, N32E, F73L
B10: Antibody 03, scFv (scFv, V domains shown)
VH: B1 VH with L116P
VL: B1 VL with H31R, N32S, R50K, F73L, S77G
B11: Antibody 02, scFv (scFv, V domains shown)
VH: B1 VH with Q5V, G85S
VL: B1 VL with F10T, I15V, N32S, R50K, A58V, D70E, F73L, N93D, L104V
B12: Antibody 19, scFv (scFv, V domains shown)
VH: B1 VH with T54I, G56D, K100R, L116P
VL: B1 VL with Q3R, N32E, D70E, F73L
B13: Antibody 25, scFv (scFv, V domains shown)
VH: B1 VH with K100R, R113Q, L116P
VL: B1 VL with G28S, N32E, R50K, D70A, F73L
B14: Antibody 21, scFv (scFv, V domains shown)
VH: B1 VH with Q1P, L116P
VL: B1 VL with T5A, F73L
B15: Antibody 13, scFv (scFv, V domains shown)
VH: B1 VH with G85D, L116P
VL: B1 VL with N32S, F73L
B16: Antibody 10, scFv (scFv, V domains shown)
VH: B1 VH with G85S, L116P
VL: B1 VL with T20A, N32S, F73L, K103R
B17: Antibody 12, scFv (scFv, V domains shown)
VH: B1 VH with G56P, L116P
VL: B1 VL with F73L
B18: Antibody 06, scFv (scFv, V domains shown)
VH: B1 VH with L116P
VL: B1 VL with N32E, F73L, G100R
B19: Antibody 05, scFv (scFv, V domains shown)
VH: B1 VH with G56S, Q65R, L116P
VL: B1 VL with N32Q, F73L
B20: Antibody 26, scFv (scFv, V domains shown)
VH: B1 VH with S16T, T54I, G85S, L116P
VL: B1 VL with N32T, F73L
B21: Antibody 22, scFv (scFv, V domains shown)
VH: B1 VH with S31G, A61S, L116P
VL: B1 VL with P8L, N32A, F73L

The binders below were run against T1, rat PAI-1 (assay: cell-based or functional assay).

IC50 HT-1080 Exo PAI-1 [nM]	Binder
52	B1

These binders were tested against T3, human PAI-1, active, wild-type, non-glycosylated (E. coli-derived) (human, UniProt P05121 24-402) (assay: cell-based or functional assay).

IC50 HT-1080 Exo PAI-1 [nM]	Binder
28	B1
9.5	B2
23.9	B3

The binders below were run against T2, mouse PAI-1 (assay: cell-based or functional assay).

IC50 HT-1080 Exo PAI-1 [nM]	Binder
22	B1
34.5	B3

Biological target: T1, rat PAI-1
Test: cell-based or functional assay
Remark: another data set of the same source

IC50 chromogenic [nM]	IC50 ratio rat/human	Binder
59.5	0.6	B4
376	229	B5
24.9	0.3	B6
127	39.3	B7
340	51.4	B8
91	0.5	B9
297	165	B10
23.1	–	B1
530	891	B11
7.9	0.3	B12
322	24.6	B13
49.2	12	B14
140	48.6	B15
296	132	B16
78.2	34.4	B17
37.1	0.5	B18
208	60.5	B3
860	172	B19
245	61.4	B20
406	81.2	B21

These binders were tested against cynomolgus PAI-1 (cynomolgus, UniProt P05121 24-402 (human entry), limits assumed) (assay: cell-based or functional assay).

IC50 chromogenic [nM]	IC50 ratio cyno/human	Binder
43.8	0.4	B4
0.5	0.3	B5
41.5	0.6	B6
1.1	0.3	B7
2.1	0.3	B8
117	0.6	B9
0.1	0.1	B10
0.8	–	B1
1.1	1.8	B11
10.8	0.4	B12
4.6	0.4	B13
1.6	0.4	B14
1.2	0.4	B15
0.5	0.2	B16
0.5	–	B2
0.6	0.3	B17
31.6	0.4	B18
1.2	0.4	B3
0.5	0.1	B19
1.2	0.3	B20
1.5	0.3	B21

Biological target: T3, human PAI-1, active, wild-type, …
Test: cell-based or functional assay
Remark: another data set of the same source

IC50 chromogenic [nM]	Binder
102	B4
1.6	B5
71.5	B6
3.2	B7
6.6	B8
187	B9
1.8	B10
0.6	B11
26	B12
13.1	B13
4.1	B14
2.9	B15
2.2	B16
2.3	B17
74.6	B18
3.4	B3
5	B19
4	B20
5	B21

Biological target: T2, mouse PAI-1
Test: cell-based or functional assay
Remark: another data set of the same source

IC50 chromogenic [nM]	IC50 ratio mouse/human	Binder
33.6	0.3	B4
376	229	B5
26.2	0.4	B6
140	43.3	B7
264	39.9	B8
143	0.8	B9
54.9	30.5	B10
553	929	B11
6.4	0.2	B12
172	13.1	B13
32.2	7.9	B14
247	85.8	B15
334	149	B16
12.9	–	B2
27.8	12.2	B17
48.2	0.6	B18
28.3	8.2	B3
718	144	B19
211	52.9	B20
413	82.6	B21
